The source of these data is US20060153850A1.

Test [1] addresses human M-CSF (macrophage colony stimulating factor) (human) (UniProt P09603). As to the kind of experiment: cell-based or functional assay.
Test [2] shares this target. As to the kind of experiment: c-fms receptor binding inhibition assay: antibody varied, 125I-M-CSF binding to c-fms-bearing cells.

B1: monoclonal antibody 9.7.2 (antibody, human IgG4, kappa, V domains shown)
VH: QVQLVESGGGLVKPGGSLRLSCAASGFTFSDYYMSWIRQAPGKGLEWVSYISSSGSTIYYADSVKGRFTISRDNAKNSLYLQMNSLRAEDTAVYYCARRIGGMDVWGQGTTVTVSS
VL: DIQMTQSPSSLSASVGDRVTITCRASQSISGFLIWYQQRPGKAPKLLIYATSSLQSGVPLRFSGSESGTDFTLTISSLQPEDFATYYCQQSYSTPFTFGPGTKVDIKR
Usually IC50 stands for the point on the concentration scale where inhibition reaches its midpoint. High values mean lower potency, low ones higher potency. As to B1, in test [1], the Human Whole Blood Monocyte Activation Assay [IC50, M] worked out at 1.98e-10 M and the M-CSF Mouse Monocytic Cell Proliferation Assay [IC50, M] was 7.37e-10 M. This molecule came in with a 50% inhibitory concentration (IC50) in test [2] of 0.006 nM.
